Assay results from patent US20180072770A1, “Influenza Virus Binding Peptides” (priority 2014, published 2018).
No end group written: not given here.

B1: reference peptide with SEQ ID NO:1 (FYDYDVFY), N-terminal (Lys)4, C-terminal amide (peptide)
peptide: KKKKFYDYDVFY
modifications: not fully specified (C-terminus)
B2: peptide with SEQ ID NO:28, N-terminal (Lys)4, C-terminal amide (peptide)
peptide: KKKKFYGYDVFF
modifications: not fully specified (C-terminus)

Columns and labels:
[1] = biological target: hemagglutinin of influenza A virus A/Mute swan/Germany/R901/06 K3141 H7N1 (influenza A virus A/Mute swan/Germany/R901/06 K3141 H7N1)
[2] = biological target: hemagglutinin of influenza A virus A/Panama/2007/1999 H3N2 (influenza A virus A/Panama/2007/1999 H3N2); experiment: cell-based or functional assay
[3] = biological target: hemagglutinin of influenza A virus A/Mute swan/Germany/R901/06 K3141 H7N1 (influenza A virus A/Mute swan/Germany/R901/06 K3141 H7N1); experiment: cell-based or functional assay

Row | Binder | IC50 [1] | Mean Ki(HAI), hemagglutination inhibition assay, human erythrocytes [2] | Hemagglutination inhibition (IC50, HAI) [3] | Mean Ki(HAI), hemagglutination inhibition assay, turkey erythrocytes [3]
1 | B1 | 40 µM | 16 µM | 47 µM | 62.5 µM
2 | B2 | 30 µM | 0.1 µM | 23 µM | 36.5 µM
